From patent publication US20150166606A1 (RA PHARMACEUTICALS, published 2015)
Numbered stars: 1 amine (or outer) side, 2 acyl side, 3 side chain; on linkers, the order of the positions; unused ones are H or OH. Bridge positions count the residues as written; N and C are the ends. Square brackets hold non-standard residues; d marks the D form. Primed or numbered codes have the meaning given here. Ends that are not written are not given here. ABP = 2-amino-3-(5-bromothiophen-2-yl)propanoic acid, O=C([C@H](Cc1ccc(Br)s1)N[*:1])[*:2]; mXylyl = xylyl linker from dibromoxylene joining the two cysteines; des‑NH2 = missing amino-terminal amine group; Phe(4-amidino)′ = not defined here; Igl = N[C@H](C(=O)O)C1Cc2ccccc2C1; NMeR = CN[C@@H](CCCNC(=N)N)C(=O)O; dPhg = N[C@@H](C(=O)O)c1ccccc1; Chg = N[C@H](C(=O)O)C1CCCCC1; Phg = N[C@H](C(=O)O)c1ccccc1; Tle = CC(C)(C)[C@H](N)C(=O)O; Dab = NCC[C@H](N)C(=O)O; Nva = CCC[C@H](N)C(=O)O

What follows are binders tested against T1, Activated human plasma kallikrein (Enzyme Research Laboratories, HPKa 1303) (human, UniProt P03952 20-638) (assay: cell-based or functional assay).
T1 sequence (P03952 20-638 limits assumed): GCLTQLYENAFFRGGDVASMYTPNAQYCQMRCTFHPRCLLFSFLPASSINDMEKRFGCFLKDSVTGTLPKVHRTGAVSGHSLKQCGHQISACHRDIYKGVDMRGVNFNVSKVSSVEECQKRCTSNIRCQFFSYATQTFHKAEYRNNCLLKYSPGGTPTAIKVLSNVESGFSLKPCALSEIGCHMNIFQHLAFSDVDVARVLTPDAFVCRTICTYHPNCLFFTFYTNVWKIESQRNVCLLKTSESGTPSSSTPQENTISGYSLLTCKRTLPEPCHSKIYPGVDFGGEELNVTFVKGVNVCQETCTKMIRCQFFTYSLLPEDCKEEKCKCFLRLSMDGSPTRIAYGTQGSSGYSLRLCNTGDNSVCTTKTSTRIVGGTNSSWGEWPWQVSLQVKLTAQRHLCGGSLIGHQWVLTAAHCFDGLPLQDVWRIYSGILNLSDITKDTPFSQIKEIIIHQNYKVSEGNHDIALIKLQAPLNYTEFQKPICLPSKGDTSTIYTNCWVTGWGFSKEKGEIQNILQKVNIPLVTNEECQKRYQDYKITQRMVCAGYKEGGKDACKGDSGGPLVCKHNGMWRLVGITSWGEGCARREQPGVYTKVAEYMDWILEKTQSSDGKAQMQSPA

Avg. IC50 | Binder
3 nM | {des‑NH2}-CP[Igl]CR[Tle]-NH2 (bridge 1-4; not fully specified (residue 1, bridges); printed as [mXylyl(1,4)](des-NH2)C-P-Ind-CR-Tbg-NH2) [R2218]
> 100000 nM | {des‑NH2}-CP[dPhg]C[ABP][Tle]-NH2 (bridge 1-4; not fully specified (residue 1, bridges); printed as [mXylyl(1,4)](des-NH2)C-P-(D-Phg)-C-ABP-Tbg-NH2) [R2220]
> 75000 nM | {des‑NH2}-CP[Phg]C[Dab][Tle]-NH2 (linker 1-4 via mXylyl; not fully specified (residue 1); printed as [mXylyl(1,4)](des-NH2)C-P-Phg-C-Dab-Tbg-NH2) [R2211]
4000 nM | {des‑NH2}-CP[Chg]CR[Tle]-OH (linker 1-4 via mXylyl) [R2214]
6390 nM | {des‑NH2}-CP[Phg]C[Phe(4-amidino)′]V-NH2 (linker 1-4 via mXylyl) [R2215]
> 100000 nM | {des‑NH2}-CP[Phg]C[ABP][Tle]-NH2 (bridge 1-4; not fully specified (residue 1, bridges); printed as [mXylyl(1,4)(des-NH2)C-P-Phg-C-ABP-Tbg-NH2) [R2219]

More lines, now with the values behind:

Binder | Avg. IC50
{des‑NH2}-CP[Phg]C-{4‑(aminomethyl)benzimidamide} (linker 1-4 via mXylyl) [R2221] | 401 nM
{des‑NH2}-CP[dPhg]CR[Tle]L[NMeR]YSE-NH2 (linker 1-4 via mXylyl) [R2217] | 114 nM
{des‑NH2}-CP[Phg]CR[Tle]L[NMeR]YSE-NH2 (linker 1-4 via mXylyl) [R2216] | 0.913 nM
{des‑NH2}-CE(PEG 40 kDa)[Chg]CR[Tle]-NH2 (linker 1-4 via mXylyl) [R2213] | 462 nM
{des‑NH2}-CP[dPhg]C[Dab][Tle]-NH2 (bridge 1-4; not fully specified (residue 1, bridges); printed as [mXylyl(1,4)](des-NH2)C-P-(D-Phg)-C-Dab-Tbg-NH2) [R2212] | > 100000 nM

Target: T1, Activated human plasma kallikrein …
Assay: cell-based or functional assay
Remark: another data set of the same source

Avg. IC50 | Binder
3.8 nM | MCNYWSPWTEC-NH2 (cysteine pairing not given here) [R2111]
3.5 nM | MCNYWSPWTECS-NH2 (cysteine pairing not given here) [R2110]
22.3 nM | Ac-ANYWSPWTEC-NH2 [R2138]
> 100000 nM | Ac-WSPWTECSA-NH2 [R2119]
54.6 nM | MCNYWSPWTS-NH2 [R2124]
4110 nM | Ac-CNYASPWTEC-NH2 (cysteine pairing not given here) [R2132]
1.4 nM | Ac-CNYWSPWTEC-NH2 (cysteine pairing not given here) [R2126]
2.4 nM | MCNYWSPWTE-NH2 [R2112]
57.2 nM | Ac-CNYWSAWTEC-NH2 (cysteine pairing not given here) [R2137]
43.9 nM | Ac-NYWSPWTECSA-NH2 [R2117]
> 100000 nM | Ac-YWSPWTECSA-NH2 [R2118]
10.6 nM | Ac-CNYWSPWTECSA-NH2 (linker 1-10 via mXylyl) [R2125]
4.1 nM | MCNYWSPWTECSA-NH2 (linker 2-11 via mXylyl) [R2108]
6.1 nM | Ac-CNYWSPWTAC-NH2 (linker 1-10 via mXylyl) [R2136]
88.8 nM | MCNYWSPWT-NH2 [R2113]
65.3 nM | Ac-[Nva]NYWSPWTAC-NH2 (SMILES CCC[C@H](NC(C)=O)C(=O)N[C@@H](CC(N)=O)C(=O)N[C@@H](Cc1ccc(O)cc1)C(=O)N[C@@H](Cc1c[nH]c2ccccc12)C(=O)N[C@@H](CO)C(=O)N1CCC[C@H]1C(=O)N[C@@H](Cc1c[nH]c2ccccc12)C(=O)N[C@H](C(=O)N[C@@H](C)C(=O)N[C@@H](CS)C(N)=O)[C@@H](C)O) [R2139]
35.6 nM | Ac-CNYWSPWTEA-NH2 [R2127]
> 17300 nM | MCNYWSP-NH2 [R2115]
349 nM | MCNYWSPW-NH2 [R2114]
> 100000 nM | Ac-SPWTECSA-NH2 [R2120]
30.4 nM | MCNYWSPWTSEI-NH2 [R2122]
4.4 nM | MCNYWSPWTSEIC-NH2 (cysteine pairing not given here) [R2105]

More lines, now with the values behind:

Binder | Avg. IC50
Ac-CNAWSPWTEC-NH2 (cysteine pairing not given here) [R2133] | 39.1 nM
Ac-CNYWSPWAEC-NH2 (cysteine pairing not given here) [R2129] | 12.3 nM
Ac-CNYWSPWTECSA-NH2 (cysteine pairing not given here) [R2116] | 3.5 nM
Ac-NYWSPWT-NH2 [R2106] | 374 nM
Ac-CNYWSPWT-NH2 [R2135] | 144 nM
Ac-[Nva]NYWSPWTA[Nva]-NH2 (SMILES CCC[C@H](NC(=O)[C@H](C)NC(=O)[C@@H](NC(=O)[C@H](Cc1c[nH]c2ccccc12)NC(=O)[C@@H]1CCCN1C(=O)[C@H](CO)NC(=O)[C@H](Cc1c[nH]c2ccccc12)NC(=O)[C@H](Cc1ccc(O)cc1)NC(=O)[C@H](CC(N)=O)NC(=O)[C@H](CCC)NC(C)=O)[C@@H](C)O)C(N)=O) [R2141] | 157 nM
MSNYWSPWTESSA-NH2 [R2107] | 128 nM
MCNYWSPWTSE-NH2 [R2123] | 25.5 nM
Ac-CNYWSPWTC-NH2 (cysteine pairing not given here) [R2134] | 86.7 nM
Ac-PWTECSA-NH2 [R2121] | 10300 nM
Ac-CNYWSPWTAC-NH2 (cysteine pairing not given here) [R2128] | 2.5 nM
Ac-CNYWSPATEC-NH2 (cysteine pairing not given here) [R2130] | 5300 nM
MCNYWSPWTSEIC-NH2 (linker 2-13 via mXylyl) [R2109] | 9.2 nM
Ac-CNYWSPWTA[Nva]-NH2 (SMILES CCC[C@H](NC(=O)[C@H](C)NC(=O)[C@@H](NC(=O)[C@H](Cc1c[nH]c2ccccc12)NC(=O)[C@@H]1CCCN1C(=O)[C@H](CO)NC(=O)[C@H](Cc1c[nH]c2ccccc12)NC(=O)[C@H](Cc1ccc(O)cc1)NC(=O)[C@H](CC(N)=O)NC(=O)[C@H](CS)NC(C)=O)[C@@H](C)O)C(N)=O) [R2140] | 105 nM
Ac-CNYWAPWTEC-NH2 (cysteine pairing not given here) [R2131] | 127 nM
